Assays:
[1] = target: T1, cysteine-rich domain (CRD) of human Fzd4 (UniProt Q9ULV1 40-161); test: SPR; apparent KD, average of four capture concentrations
T1 chain: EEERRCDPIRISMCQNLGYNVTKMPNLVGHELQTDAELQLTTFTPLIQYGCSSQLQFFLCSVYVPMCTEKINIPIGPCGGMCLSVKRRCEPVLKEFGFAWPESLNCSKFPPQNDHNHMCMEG

[2] = target: T1, cysteine-rich domain (CRD) of human Fzd4; test: BLI

B1: 4SD1-03_LALAPG (bispecific antibody)
heavy: EVQLVESGGGLVKPGGSLRLSCAASGFTFTNYAMSWVRQAPGKGLEWVSAISGSGGSTYYADSVKGRFTISRDDSKNTLYLQMNSLKTEDTAVYYCARATGFGTVVFDYWGQGTLVTVSSASTKGPSVFPLAPSSKSTSGGTAALGCLVKDYFPEPVTVSWNSGALTSGVHTFPAVLQSSGLYSLSSVVTVPSSSLGTQTYICNVNHKPSNTKVDKKVEPKSCDKTHTCPPCPAPEAAGGPSVFLFPPKPKDTLMISRTPEVTCVVVDVSHEDPEVKFNWYVDGVEVHNAKTKPREEQYNSTYRVVSVLTVLHQDWLNGKEYKCKVSNKALGAPIEKTISKAKGQPREPQVYTLPPSREEMTKNQVSLTCLVKGFYPSDIAVEWESNGQPENNYKTTPPVLDSDGSFFLYSKLTVDKSRWQQGNVFSCSVMHEALHNHYTQKSLSLSPGK
light: not shown
- Kd [1]: 729 nM
- Kd [2]: 44.7 nM
